Data on 15 molecules can be found in article PMC9082315 (Frontiers in Immunology, 2022).

The target in experiment [1] is monomeric SARS-CoV-2 RBD with Flag peptide and 8xHis-tag (RBD-FH) (SARS-CoV-2, WA1 (Wuhan-like), UniProt P0DTC2). The experiment in a line: SPR. Conditions: both partners purified.
In experiment [2] the target is monomeric SARS-CoV-2 RBD (S residues 332-534) with Flag peptide and 8xHis-tag (SARS-CoV-2, WA1 (Wuhan-like), UniProt P0DTC2, biotin (only in the flow cytometry on bacteria)). As to the kind of experiment: SPR. Conditions: both partners purified.
In experiment [3] the target is T1, human fibrinogen (control antigen) (Homo sapiens, UniProt P02671;P02675;P02679-2, biotin | biotin | biotin).
T1 construct: also called human fribrinogen
T1 sequence (P02671 36-866, chain 1 of 3): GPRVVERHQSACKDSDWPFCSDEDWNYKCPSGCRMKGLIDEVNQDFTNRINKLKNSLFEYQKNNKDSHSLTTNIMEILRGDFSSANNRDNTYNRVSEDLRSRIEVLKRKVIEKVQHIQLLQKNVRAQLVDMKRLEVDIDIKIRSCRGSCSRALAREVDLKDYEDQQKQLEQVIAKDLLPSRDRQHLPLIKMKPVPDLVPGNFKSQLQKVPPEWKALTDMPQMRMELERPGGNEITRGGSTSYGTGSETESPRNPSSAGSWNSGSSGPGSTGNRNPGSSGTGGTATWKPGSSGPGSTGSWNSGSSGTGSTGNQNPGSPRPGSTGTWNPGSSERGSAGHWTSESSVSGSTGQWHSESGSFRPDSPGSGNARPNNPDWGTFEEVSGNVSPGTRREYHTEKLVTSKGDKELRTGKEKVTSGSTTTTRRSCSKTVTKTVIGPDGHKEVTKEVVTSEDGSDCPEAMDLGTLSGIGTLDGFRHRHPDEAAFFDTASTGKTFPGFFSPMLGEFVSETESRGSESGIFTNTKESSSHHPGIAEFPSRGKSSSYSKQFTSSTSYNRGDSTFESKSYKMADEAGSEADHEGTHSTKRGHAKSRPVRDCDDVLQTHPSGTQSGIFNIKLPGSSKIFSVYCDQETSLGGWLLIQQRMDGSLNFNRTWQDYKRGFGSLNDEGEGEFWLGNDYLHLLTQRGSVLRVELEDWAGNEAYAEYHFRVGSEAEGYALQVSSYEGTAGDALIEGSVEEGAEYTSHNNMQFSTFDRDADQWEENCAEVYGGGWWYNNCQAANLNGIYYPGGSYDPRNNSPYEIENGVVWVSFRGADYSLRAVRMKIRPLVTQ
T1 sequence (P02675 45-491, chain 2 of 3): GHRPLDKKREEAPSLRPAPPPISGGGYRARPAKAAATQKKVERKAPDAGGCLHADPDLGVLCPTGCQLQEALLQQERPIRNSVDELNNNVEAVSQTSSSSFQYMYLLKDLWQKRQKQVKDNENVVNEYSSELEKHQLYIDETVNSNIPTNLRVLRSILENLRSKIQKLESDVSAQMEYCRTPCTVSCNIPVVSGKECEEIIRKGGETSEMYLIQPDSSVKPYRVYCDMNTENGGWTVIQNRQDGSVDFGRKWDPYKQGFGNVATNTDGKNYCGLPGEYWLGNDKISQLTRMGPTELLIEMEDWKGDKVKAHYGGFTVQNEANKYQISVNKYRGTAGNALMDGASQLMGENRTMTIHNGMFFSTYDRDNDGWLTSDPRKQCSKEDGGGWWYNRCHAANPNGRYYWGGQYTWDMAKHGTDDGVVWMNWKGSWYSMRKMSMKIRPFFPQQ
T1 sequence (P02679 27-453, chain 3 of 3): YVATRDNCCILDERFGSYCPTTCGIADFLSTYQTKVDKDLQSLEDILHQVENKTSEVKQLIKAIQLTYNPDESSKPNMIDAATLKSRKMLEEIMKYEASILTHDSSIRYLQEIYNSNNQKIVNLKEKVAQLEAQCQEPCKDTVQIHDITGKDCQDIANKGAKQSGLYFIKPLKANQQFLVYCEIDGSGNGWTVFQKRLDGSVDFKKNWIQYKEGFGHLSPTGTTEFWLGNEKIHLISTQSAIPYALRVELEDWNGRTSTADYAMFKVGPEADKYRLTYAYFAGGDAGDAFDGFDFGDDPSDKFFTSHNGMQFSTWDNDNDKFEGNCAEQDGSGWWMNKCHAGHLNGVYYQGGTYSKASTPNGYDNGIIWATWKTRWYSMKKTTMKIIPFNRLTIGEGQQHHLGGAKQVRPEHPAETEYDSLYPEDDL
As to the kind of experiment: flow cytometry on cells. The conditions noted are these: one partner purified. Background: A flow cytometer gives signals particle by particle.

Broadly, the Kd is the concentration at which binding is half-saturated. A high value points to lower affinity. A word on the koff: it is a measure of how fast the partners let go of each other. The low end stands for slow dissociation, the high end for fast dissociation. The term kon denotes a measure of how fast the partners come together. Read a low kon as slower complex formation.

B1: 1.26 Nb (VHH)
VHH: QVQLVESGGGLVQAGGSLRLSCAATGYTWSSVCMGWFRQAPGKEREGVAGIPSGRNRPYYADSVKGRFTISQDNAKNAVFLLMNSLKPEDTAIYYCAPCSAPHDPEYNYWGQGTQVTVSS
In experiment [1], B1 showed a Kd of 0.26 nM, a koff of 0.000624 s⁻¹ and a kon of 2.44e+06 M⁻¹ s⁻¹.

B2: Nb 1.26, monomeric nanobody (VHH)
VHH: B1 VHH
As for B2, in experiment [2], the Kd was approximately 0.3 nM.

B3: Nb 1.26 displayed on E. coli as intimin-Nb-myc tag fusion (VHH)
VHH: B1 VHH
Consider B3, for which the binding result in experiment [3] is listed as “no binding (tested: 100 nM)”.

B4: Nb 2.11 displayed on E. coli as intimin-Nb-myc tag fusion (VHH)
VHH: QVQLVESGGGSVQAGGSLRLSCAASGDASNRKCVSWFRRAPGKEREGVALIFPVGSSTAYADSVKGRFTISQDSAKDTVYLQMNNLKPEDSGTYYCAAVSWGGRCNLETQTVTFWGQGTQVTVSS
For the molecule B4, in experiment [3], the binding result is listed as “no binding (tested: 100 nM)”.

B5: Nb 1.16 displayed on E. coli as intimin-Nb-myc tag fusion (VHH)
VHH: QVQLVESGGGSVQAGGSLRLSCAASGNTSKRKCVGWFRRAPGKEREGVTLIYTVGGSTVYADSVKGRFTISQDNAKDTVYLQMNSLKPEDSAMYYCAAESWGRQCNLETHRFTFWGQGTQVTVSS
For the molecule B5, the binding result in experiment [3] is reported as “no binding (tested: 100 nM)”.

B6: Nb 2.15 displayed on E. coli as intimin-Nb-myc tag fusion (VHH)
VHH: QVQLVESGGGSVQAGGSLKLSCAASGYASWARKCIGWFRQAPGQEREGVAAIFDFDGSTYYSDSVKGRFTISGDNAKNTVSLQMNSLLPKDTAVYYCTVAFGTCDNWYRGRGDYWGQGTQVTVSS
B6: the binding result in experiment [3] is “no binding (tested: 100 nM)”.

B7: Nb 1.28 displayed on E. coli as intimin-Nb-myc tag fusion (VHH)
VHH: QVQLVESGGGSVQAGGSLRLSCAASGLTNIRCHMAWYRQAPGKGRELVSRITTNGVTDYADSVKERFTISRHNAENTVYLQMNSLKPEDTAVYYCAACGFSTTTYWGQGTQVTVSS
B7: the binding result in experiment [3] is recorded as “no binding (tested: 100 nM)”.

B8: 1.10 Nb (VHH)
VHH: QVQLVESGGGSVQAGGSLRLSCAASGYTYSTCRKGWYRQAPGKERELVASITADGATYYLDSVKGRLTISQDNAKNTVYLQMNSLKPEDTAVYYCAASVKDFTCTFNSWGQGTQVTVSS
In experiment [1], B8 displayed a Kd of 3.96 nM, a koff of 0.00137 s⁻¹ and a kon of 345000 M⁻¹ s⁻¹.

B9: Nb 1.10 displayed on E. coli as intimin-Nb-myc tag fusion (VHH)
VHH: B8 VHH
As to B9, the binding result in experiment [3] is given as “no binding (tested: 100 nM)”.

B10: Nb 2.1 displayed on E. coli as intimin-Nb-myc tag fusion (VHH)
VHH: QVQLVESGGGSVQAGGSLRLSCAAFGATISSAHMGWFRQAPGKEREGVAFRYTDGSSTYYTTSVRGRFTISQDNAKNTVYLQMNSLKPEDTAMYYCASNPSWGRLVGGQYNNWGQGTQITVSS
With B10, in experiment [3], the binding result is listed as “no binding (tested: 100 nM)”.

B11: 2.20 Nb (VHH)
VHH: QVQLVESGGGSVQAGGSLRLSCAASGYTYNNYYMGWFRQAPGKEREGVAAINSDGLDTYVADSVKGRFTISRDNAKDTVHLQMNSLKPEDTAIYSCATGRTVYYSGYDFRLSVDDYWGQGTQVTVSS
In experiment [1], B11 registered a Kd of 0.77 nM, a koff of 0.00101 s⁻¹ and a kon of 1.3e+06 M⁻¹ s⁻¹.

B12: Nb 2.20 displayed on E. coli as intimin-Nb-myc tag fusion (VHH)
VHH: B11 VHH
For the molecule B12, in experiment [3], the binding result was “no binding (tested: 100 nM)”.

B13: 1.29 Nb (VHH)
VHH: QVQLVESGGGSVQAGGSLRLSCAASGYTINTDAVAWFRQAPGKGDERVAVIYTGSGNTNYADSVKGRFTISQDNAKNTVYLQMNSLKPEDTALYYCASGYYGASGYDFNNWGQGTQVTVSS
For B13, in experiment [1], the Kd was 12.9 nM, the koff was determined as 0.00614 s⁻¹ and the on-rate (kon) was found to be 476000 M⁻¹ s⁻¹.

B14: Nb 1.29, monomeric nanobody (VHH)
VHH: B13 VHH
Turning to B14, binding in experiment [2] was put at a Kd of 13 nM.

B15: Nb 1.29 displayed on E. coli as intimin-Nb-myc tag fusion (VHH)
VHH: B13 VHH
As to B15, the binding result in experiment [3] is given as “no binding (tested: 100 nM)”.
